How the values were obtained:
grb2_human GRB2 = grb2_human GRB2 (UniProt P62993)
igf1r_human IGF1R [1] = biological target: igf1r_human IGF1R (UniProt P08069)
erbb4_human ERBB4 = erbb4_human ERBB4 (UniProt Q15303)
fgfr4_human FGFR4 = fgfr4_human FGFR4 (UniProt P22455)
fgfr2_human FGFR2 = fgfr2_human FGFR2 (UniProt P21802)
vgfr2_human KDR = vgfr2_human KDR (UniProt P35968)
igf1r_human IGF1R [2] = biological target: igf1r_human IGF1R (UniProt P08069); remark: listed apart in the source

Tyrosine-protein phosphatase non-receptor type 6 (Homo sapiens), P29350 D419A;C453S, sequence (P29350 whole entry D419A/C453S): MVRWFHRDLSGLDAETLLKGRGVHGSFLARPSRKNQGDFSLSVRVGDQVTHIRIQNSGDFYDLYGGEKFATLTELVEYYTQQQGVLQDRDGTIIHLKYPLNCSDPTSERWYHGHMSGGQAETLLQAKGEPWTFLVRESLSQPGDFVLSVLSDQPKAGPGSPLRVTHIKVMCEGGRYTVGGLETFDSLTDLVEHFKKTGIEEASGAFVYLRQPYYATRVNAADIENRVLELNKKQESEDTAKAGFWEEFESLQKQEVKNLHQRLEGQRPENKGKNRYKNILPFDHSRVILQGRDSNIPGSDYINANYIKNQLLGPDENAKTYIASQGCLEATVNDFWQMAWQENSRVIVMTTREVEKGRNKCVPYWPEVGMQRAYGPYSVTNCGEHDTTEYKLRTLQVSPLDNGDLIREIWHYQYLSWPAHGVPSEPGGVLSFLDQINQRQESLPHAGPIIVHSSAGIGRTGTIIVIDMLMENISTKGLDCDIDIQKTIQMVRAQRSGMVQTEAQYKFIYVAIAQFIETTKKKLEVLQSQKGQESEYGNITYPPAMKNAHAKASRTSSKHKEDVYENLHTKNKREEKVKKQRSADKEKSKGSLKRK
Tyrosine-protein phosphatase non-receptor type 6 (Homo sapiens), P29350 C453S, sequence (P29350 whole entry C453S): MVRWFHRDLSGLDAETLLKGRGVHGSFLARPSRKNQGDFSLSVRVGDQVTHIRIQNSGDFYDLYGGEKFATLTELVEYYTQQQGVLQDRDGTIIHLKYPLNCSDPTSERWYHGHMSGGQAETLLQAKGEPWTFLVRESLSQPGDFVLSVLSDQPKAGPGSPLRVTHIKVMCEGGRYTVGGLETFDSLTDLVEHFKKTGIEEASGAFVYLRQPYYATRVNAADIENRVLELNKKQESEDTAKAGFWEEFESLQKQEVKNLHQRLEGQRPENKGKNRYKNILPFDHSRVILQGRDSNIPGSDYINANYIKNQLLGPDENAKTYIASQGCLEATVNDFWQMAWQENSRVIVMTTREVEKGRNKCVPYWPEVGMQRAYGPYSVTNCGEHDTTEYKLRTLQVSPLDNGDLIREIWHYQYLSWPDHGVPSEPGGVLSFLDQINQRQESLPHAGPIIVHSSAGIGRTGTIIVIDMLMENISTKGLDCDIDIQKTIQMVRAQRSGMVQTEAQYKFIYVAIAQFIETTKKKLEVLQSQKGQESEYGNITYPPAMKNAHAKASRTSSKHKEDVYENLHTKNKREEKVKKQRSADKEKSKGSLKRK
igf1r_human IGF1R, sequence (P08069 whole entry, looked up): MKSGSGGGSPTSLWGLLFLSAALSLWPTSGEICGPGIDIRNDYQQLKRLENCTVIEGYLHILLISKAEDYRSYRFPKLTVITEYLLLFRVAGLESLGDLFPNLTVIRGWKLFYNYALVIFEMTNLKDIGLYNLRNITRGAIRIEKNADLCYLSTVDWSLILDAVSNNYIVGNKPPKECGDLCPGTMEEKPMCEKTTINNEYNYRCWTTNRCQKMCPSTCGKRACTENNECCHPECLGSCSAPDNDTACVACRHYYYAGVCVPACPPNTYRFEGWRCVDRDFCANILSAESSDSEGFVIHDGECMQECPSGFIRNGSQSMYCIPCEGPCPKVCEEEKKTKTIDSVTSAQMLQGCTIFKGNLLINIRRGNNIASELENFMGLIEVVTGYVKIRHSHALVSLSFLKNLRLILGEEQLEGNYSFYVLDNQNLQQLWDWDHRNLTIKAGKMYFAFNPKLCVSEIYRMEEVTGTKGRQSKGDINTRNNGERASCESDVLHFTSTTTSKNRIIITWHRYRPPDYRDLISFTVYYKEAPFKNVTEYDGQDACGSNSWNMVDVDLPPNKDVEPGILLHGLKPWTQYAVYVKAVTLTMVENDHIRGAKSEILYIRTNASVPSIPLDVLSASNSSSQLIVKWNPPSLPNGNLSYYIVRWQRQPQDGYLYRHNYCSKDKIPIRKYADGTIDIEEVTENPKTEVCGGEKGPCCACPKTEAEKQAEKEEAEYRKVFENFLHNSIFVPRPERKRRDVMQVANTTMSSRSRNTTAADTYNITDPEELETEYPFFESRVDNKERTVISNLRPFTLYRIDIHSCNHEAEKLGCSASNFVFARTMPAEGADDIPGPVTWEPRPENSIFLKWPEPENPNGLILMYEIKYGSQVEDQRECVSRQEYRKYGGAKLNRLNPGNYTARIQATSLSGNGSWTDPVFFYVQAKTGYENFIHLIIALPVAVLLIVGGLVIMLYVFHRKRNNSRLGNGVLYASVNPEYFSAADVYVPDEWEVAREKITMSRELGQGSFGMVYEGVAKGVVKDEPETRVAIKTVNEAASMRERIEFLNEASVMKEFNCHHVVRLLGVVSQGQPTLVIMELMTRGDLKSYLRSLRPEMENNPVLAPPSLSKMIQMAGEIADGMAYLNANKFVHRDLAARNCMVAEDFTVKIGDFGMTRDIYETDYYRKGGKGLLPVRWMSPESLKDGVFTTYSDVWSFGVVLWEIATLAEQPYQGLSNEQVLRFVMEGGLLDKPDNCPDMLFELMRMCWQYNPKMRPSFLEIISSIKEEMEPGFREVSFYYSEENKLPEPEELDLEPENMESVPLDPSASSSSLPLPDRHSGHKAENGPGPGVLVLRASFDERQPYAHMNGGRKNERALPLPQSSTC
erbb4_human ERBB4, sequence (Q15303 whole entry): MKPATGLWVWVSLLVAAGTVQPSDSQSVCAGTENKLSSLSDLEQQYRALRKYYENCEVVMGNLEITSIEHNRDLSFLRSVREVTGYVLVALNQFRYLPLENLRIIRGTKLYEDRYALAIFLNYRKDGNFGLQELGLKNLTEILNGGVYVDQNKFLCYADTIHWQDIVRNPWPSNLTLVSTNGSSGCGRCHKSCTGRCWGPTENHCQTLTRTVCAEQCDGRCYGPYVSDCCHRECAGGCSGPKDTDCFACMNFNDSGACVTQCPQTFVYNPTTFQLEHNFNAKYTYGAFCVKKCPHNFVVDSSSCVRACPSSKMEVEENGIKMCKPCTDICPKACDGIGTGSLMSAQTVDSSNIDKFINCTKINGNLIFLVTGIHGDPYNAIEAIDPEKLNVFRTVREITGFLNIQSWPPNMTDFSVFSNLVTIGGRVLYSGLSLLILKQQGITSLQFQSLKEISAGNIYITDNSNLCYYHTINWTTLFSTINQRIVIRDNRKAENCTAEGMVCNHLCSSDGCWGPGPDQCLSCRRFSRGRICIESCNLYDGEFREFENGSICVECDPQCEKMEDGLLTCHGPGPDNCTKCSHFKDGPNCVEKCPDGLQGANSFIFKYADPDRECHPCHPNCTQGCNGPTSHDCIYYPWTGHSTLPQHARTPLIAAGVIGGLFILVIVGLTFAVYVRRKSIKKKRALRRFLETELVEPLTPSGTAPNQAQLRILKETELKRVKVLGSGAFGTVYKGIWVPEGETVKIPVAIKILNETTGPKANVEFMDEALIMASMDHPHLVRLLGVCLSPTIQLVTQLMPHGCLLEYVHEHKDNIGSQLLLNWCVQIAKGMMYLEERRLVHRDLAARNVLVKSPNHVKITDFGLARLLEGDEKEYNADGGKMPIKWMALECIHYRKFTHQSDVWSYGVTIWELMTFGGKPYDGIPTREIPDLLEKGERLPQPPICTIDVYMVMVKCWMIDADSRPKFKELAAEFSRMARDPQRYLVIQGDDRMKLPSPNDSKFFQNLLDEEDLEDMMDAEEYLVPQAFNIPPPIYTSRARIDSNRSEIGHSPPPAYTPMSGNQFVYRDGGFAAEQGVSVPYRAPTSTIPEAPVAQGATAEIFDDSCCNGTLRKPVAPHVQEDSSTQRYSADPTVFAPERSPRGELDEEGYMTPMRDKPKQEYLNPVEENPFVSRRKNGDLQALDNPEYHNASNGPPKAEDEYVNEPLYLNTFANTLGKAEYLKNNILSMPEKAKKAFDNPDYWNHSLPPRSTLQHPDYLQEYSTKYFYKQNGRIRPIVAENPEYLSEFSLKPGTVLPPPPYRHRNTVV
fgfr2_human FGFR2, sequence (P21802 whole entry, looked up): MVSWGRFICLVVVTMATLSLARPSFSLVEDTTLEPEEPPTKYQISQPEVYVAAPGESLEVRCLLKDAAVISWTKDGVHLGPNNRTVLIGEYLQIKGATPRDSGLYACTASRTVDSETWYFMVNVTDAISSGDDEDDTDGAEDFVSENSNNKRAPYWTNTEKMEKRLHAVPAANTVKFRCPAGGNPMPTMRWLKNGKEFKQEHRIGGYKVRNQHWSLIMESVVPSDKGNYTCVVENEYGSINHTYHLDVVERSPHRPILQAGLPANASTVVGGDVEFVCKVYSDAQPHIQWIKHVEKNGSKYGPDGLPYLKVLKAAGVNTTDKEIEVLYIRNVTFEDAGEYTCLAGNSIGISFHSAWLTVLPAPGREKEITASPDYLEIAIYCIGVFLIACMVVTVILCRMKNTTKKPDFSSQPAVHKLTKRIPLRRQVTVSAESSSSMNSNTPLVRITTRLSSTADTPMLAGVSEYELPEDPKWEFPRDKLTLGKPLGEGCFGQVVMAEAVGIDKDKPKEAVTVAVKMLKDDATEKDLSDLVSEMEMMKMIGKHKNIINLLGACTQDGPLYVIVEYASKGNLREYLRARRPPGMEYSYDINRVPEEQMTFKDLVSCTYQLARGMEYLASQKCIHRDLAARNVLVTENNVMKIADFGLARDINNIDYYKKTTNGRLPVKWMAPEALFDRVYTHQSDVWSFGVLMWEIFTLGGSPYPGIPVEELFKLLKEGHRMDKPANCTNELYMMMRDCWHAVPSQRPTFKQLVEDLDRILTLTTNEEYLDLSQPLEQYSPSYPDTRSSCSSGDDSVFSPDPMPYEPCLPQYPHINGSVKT

effect of a mutation on the interaction (grb2_human GRB2)	effect of a mutation on the interaction (igf1r_human IGF1R [1])	effect of a mutation on the interaction (erbb4_human ERBB4)	effect of a mutation on the interaction (fgfr4_human FGFR4)	effect of a mutation on the interaction (fgfr2_human FGFR2)	effect of a mutation on the interaction (vgfr2_human KDR)	effect of a mutation on the interaction (igf1r_human IGF1R [2])	Substance
decreasing interaction							Receptor-type tyrosine-protein phosphatase alpha (Homo sapiens) (from UniProt P18433) Y798F
	decreasing interaction	with no effect	with no effect	with no effect	with no effect		Tyrosine-protein phosphatase non-receptor type 6 (Homo sapiens), P29350 C453S
	decreasing interaction	with no effect	with no effect	with no effect	with no effect	with no effect	Tyrosine-protein phosphatase non-receptor type 6 (Homo sapiens), P29350 D419A;C453S

From IntAct's records for PubMed 28065597
